Test results reported in the supplement of paper PMC9170038.

Tested on: K4 kissing-loop RNA reporter
Test: apparent KD of K4 kissing-loop reporter; higher = weaker reporter binding
Settings: Eterna round: R107; input ligand: theophylline 20 uM
Description: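 RNA-MaP round R107: designed RNA switches with theophylline, tryptophan, arginine or FMN aptamers are transcribed on-chip within common flanks. They are titrated with a labelled K4 kissing-loop RNA reporter in RNA-MaP buffer (100 mM Tris pH 7.5, 80 mM KCl, 4 mM MgCl2), without ligand or with the indicated ligand. Median apparent KD per design.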
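Further: bound reporter read as fluorescence of individual clusters on recovered sequencing chips by microscopy, with normalized cluster intensities fitted with a binding model.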

| Sequence | apparent KD of K4 kissing-loop reporter |
| --- | --- |
| CGUUUAUUGCAGGAUACCAGUACCCAUUAUGUACGUUUAUAGUAGAGUGAUGUUCUAAAGUACCCUUGGCAGCUUCCCGUGACCC [#22 K4 Theophylline B Exclusion] | 188 nM |
| AGUGUGCAAAAGCACACUCAGAACAAGGACAAGGAUAUCUACUAAUAGAGAAGGUGUCCUUUCCUUAGUGAUGUUAAGGAUCUGA [Omei KL FMN A SS D v4] | 486 nM |
| UAGUCCUAGUGAUCCUUAUCAAGUGGUGGGCGAGGACCGGUACGGCCGCCACUCGAAUAUGCAGUGAUGUUGUAAUCCGGAUAAU [Exclusion - Tryptophan A (Freestyle 10)] | 846 nM |
| CCCUCACGAGUGAUGUUCGUAGGGUACAGUCAGGAUAUCAUGCGGUUGAGAAGGGACAGAGAGGGCGGCGGCGGGUUGCUCCUCU [Beeded] | 711 nM |
| GGUAGCAUGGCGGCCGCCACUGGAGAGUGAUGUUCUCCACUAGGUUACAACGCCGGACAGUCCACCAGGACCGGGCCAUGCUACC | 129 nM |
| UGACUGGACUGAAGGAGCGGGCGAGACAAAGUCUCGAACUCCUAGUGAUGUUAGGAAAUAACCCAGGUAGGUCGCAGUCUAGUCU [ArgBS 7 #SwitchBubble #StaticStem #DoubleMagnet] | 136 nM |
| UUAGAGAUCUCAGGAUAUCAGUGAUGUUGGUAUCAAGAUCUGAGAUAGAAUUCUAUCUCAGAUCAAUGAGAAGGGAGAUCUCAUU [AK3.3 Exc FMN B] | 176 nM |
| GGGCGUGGCGCGGCCGCCACUGGGCCUGGGCGCUCGCUGAGUGAUGUUCGUCGGCGGCUGGGUCGUAGGACCGGGUGCUGGUUGG [BDazzled - #7 SS Tryptophan B] | 424 nM |

Same assay, conditions: Eterna round: R107; input ligand: tryptophan 2.4 mM

| Sequence | apparent KD of K4 kissing-loop reporter |
| --- | --- |
| AAAAGAAGAAGUGAUACCAGACAAGCAGUGAUGUUGCGCCAAAGUGAGUGAUGUUCACCAGUCCCUUGGCAGCACAUGCCAAAAG [Same State Theophylline B GF 5] | 933 nM |
| CAUGGAGUGAUGCUCCAUGGUCGGGCUUGGCAGGAUAUGGGAUCUUCCAGAAGGGCCGAUCCCGGCGAGUGAUGUUCGCUGGUCU [Exclusion FMN A GF 28] | 271 nM |
| CACUCGGUAUCAGAUACCAGACUAACGAUACCGAGUGUAUCGGGUAGUGAUGUUACCAUAGUCCCUUGGCAGCUGAUAUUCCCUA [Theo B SS t9a] | 199 nM |
| UUGUUUGGUUGAGAGGUUGGGCGAGAUGAUACCAGUAUAUAAGAAUACCCUUGGCAGCAUAAGAAAGAUAUAGUGAUGUUGUAUA [SSTheophA.M] | 457 nM |
| AUAUGCAGGAGAAGGAGCGUCGUUGCAAGUGAUGUUUGCAAGCGAGCUUACUAUAUACGACGACAGGUAGGUCGCUCCUGCGUAA [Arg B Ex t2] | 67.2 nM |
| UUAGGAGUGGAAGGAUAUCCUGGUGUGGGUGAUGUUAGUGAUGUUGGAGGUGCAGUGAUGUUGCGCGGAGAAGGUCCGGUGUUGA [BDazzled - #5 - Exc. FMN B] | 263 nM |
| UUAGCGACAAGUCAGAUUCUGACAAUUGAUACCAGAUAGAAUUCUAUCCCUUGGCAGCAGUGAUGUUGUUGCAAUAAGUCGCAUU [AK2 Exc Theophylline A] | 266 nM |
| CCGUGGAGUGAUGUUCCACGUACUACGGAUACCAGCUUUGCCAAAGGCCCUUGGCAGCCGCACGGCUCAGUGAUGUUGGGUCGCG [Same State Theophylline A G10] | 148 nM |
| GUAGAUAGGCAACAUCCCUAGUCUACAGACUAGGAUAUCAGGAAACUGAGAAGGAGUCUCCUUGCAGUGAUGUUGCAAGAAUAAU [[F]''-[K]'-[F]'-[F1]-[F2]-[K1]-[K2]_Design5] | 161 nM |
| UGACUACAGGAAUAAUAAUCCUAGUGAUGUUAGGAUAUGCUGAUAAGCAGAAGGAACUGAGAUCGAAAGAUCUCAAAAGUAGUCU [FmnAX 28 Mat Inspired #SwitchBubble #StaticStem #K4Early] | 96.7 nM |
| CGGAACGCAUCGGCCGCCACUUUUAUCUGCAGUGAUGUUGCAGUAUCCGAGCAAGGCUGUUGUGAAAGGACCGGGAUGGUCCGUU [Tibeberi] | 143 nM |
| AACUCUCAGACACUUGAGUGAUGUUCGGGCCGAGGACCGGUACGGCCGCCACUCGGGUCUGAGAGAGGUUAUCAAAGAUAGCCAA [Omei KL Tryp A SS A v9] | 164 nM |
| GUAUCGCUAGGAGGAUAUUUCAAAUAAUAAAUAAAUGGAUAUACGGAGUGAUGUUCCGAUUUACGGAAAGAAGGCCUAGUGAUAC [FMN B 1] | 171 nM |
| GAGAUAGAGGCGGCCGCCACUAGUGAUGUUAGUGAUGUUAGAAAGAGAAUAGAACAGGGAUUUGAUAGGACCGGGCCAGAUGGAG [wwemullin] | 63 nM |
| UGUACCGAGUCAGGAUAUGCCGUCGAAAGACGAAAGCAGUGAUGUUGCAUCGAUCGAAAGAUCGUUGCAGAAGGGACUUGGUACU [FmnBS 23 #SwitchBubble #StaticStem #DoubleMagnetSystem] | 297 nM |
| UUUAUAAAGUCGGCCGCCACUGGAUUUAUAUUUGUUUAGUCUGGAUCAAAGUGAUGUUUUGAGUCCAGGACCGGGACAUUUGUUA [whbob_Ex_Tryp_B_w36] | 172 nM |

| Sequence | apparent KD of K4 kissing-loop reporter |
| --- | --- |
| AGAGAUAUAUGAGGAUAUGAGAUAGUUAAUGAGUGAGUUAUAGUGUUGUUUGGUUAGUGAUGUUAUUUAGAAGGCGUGAGUGAUG [immumullin] | 82.5 nM |
| AUUAAUAUCACGGCCGCCACUGUAUAUUGUUUUUAUAUUUAGAAUAAUUGCCAGUGAUGUUGGAACAGGACCGGGUGAGUUUAUA [#28 K4 Tryptophan B Same State] | 323 nM |
| UUAGUCUAGAGAAGGAGCGCAGUGAUGUUGCGAAUAAUAAUAAUAAUAAAUAAAUAAUCGAUGCAGGUAGGUCGCUCUAGACAUU [AK1 Exc Arginine B] | 213 nM |
| GAUAUAGUGAUGUUAUAUACUGAUAGACAACGAGGACCGGUACGGCCGCCACUCGAGAGGGUGAAAAUGAUGAUAAAAUAAUAAU [#01 K4 Tryptophan A Exclusion] | 269 nM |
| CCAACGUGAAAAGGAUAUCGCGAUGUGCACGACUAGUGAUGUUAGGAGAGGCUCGUUGAAUUGUACCGAGAAGGUUUUGAGUGGG [theeternabot_sameState_KL_FMN_B_16] | 196 nM |
| GCGGCGGGCCAAGGAUAUAUAUUGGAGUGAUGUUGUUCAUUUAUUUGAGCUAGUGAUGUUGGUCAAAUAGAAGGUGGCCCGCCGC [whbob_Ex_FMNB__2th217] | 62 nM |
| AGACUACUGAUAGGAUAUAACAUCCUAGUCGUAUACCGAAAGGUAUACGAUUCCCUUCUAGUGAUGUUAGAAGGGUCGGUAGUCA [Omei KL FMN B Exc B v12] | 78.9 nM |
| CGUUUAUUGCAGGAUACCAGUACCCAUUAUGUACGUUUAUAGUAGAGUGAUGUUCUAAAGUACCCUUGGCAGCUUCCCGUGACCC [#22 K4 Theophylline B Exclusion] | 90.3 nM |
| AGUGUGCAAAAGCACACUCAGAACAAGGACAAGGAUAUCUACUAAUAGAGAAGGUGUCCUUUCCUUAGUGAUGUUAAGGAUCUGA [Omei KL FMN A SS D v4] | 564 nM |
| UAGUCCUAGUGAUCCUUAUCAAGUGGUGGGCGAGGACCGGUACGGCCGCCACUCGAAUAUGCAGUGAUGUUGUAAUCCGGAUAAU [Exclusion - Tryptophan A (Freestyle 10)] | 417 nM |
| CCCUCACGAGUGAUGUUCGUAGGGUACAGUCAGGAUAUCAUGCGGUUGAGAAGGGACAGAGAGGGCGGCGGCGGGUUGCUCCUCU [Beeded] | 495 nM |
| GGUAGCAUGGCGGCCGCCACUGGAGAGUGAUGUUCUCCACUAGGUUACAACGCCGGACAGUCCACCAGGACCGGGCCAUGCUACC | 436 nM |
| UGACUGGACUGAAGGAGCGGGCGAGACAAAGUCUCGAACUCCUAGUGAUGUUAGGAAAUAACCCAGGUAGGUCGCAGUCUAGUCU [ArgBS 7 #SwitchBubble #StaticStem #DoubleMagnet] | 137 nM |
| UUAGAGAUCUCAGGAUAUCAGUGAUGUUGGUAUCAAGAUCUGAGAUAGAAUUCUAUCUCAGAUCAAUGAGAAGGGAGAUCUCAUU [AK3.3 Exc FMN B] | 118 nM |
| GGGCGUGGCGCGGCCGCCACUGGGCCUGGGCGCUCGCUGAGUGAUGUUCGUCGGCGGCUGGGUCGUAGGACCGGGUGCUGGUUGG [BDazzled - #7 SS Tryptophan B] | 302 nM |
